Read-outs that look alike come from different tables or passages of the source. Blank lines part the entries; values can stand above or below the binder they belong to.
What was measured:
[1] = target: T1, B7H6 (ELISA coat) (human, UniProt Q68D85 25-262, limits assumed); test: ELISA, plate coated with B7H6
T1 construct: Species read from the list 'human VISTA, PD-1, PD-L1, ...'; also called NCR3LG1
T1 sequence (looked up): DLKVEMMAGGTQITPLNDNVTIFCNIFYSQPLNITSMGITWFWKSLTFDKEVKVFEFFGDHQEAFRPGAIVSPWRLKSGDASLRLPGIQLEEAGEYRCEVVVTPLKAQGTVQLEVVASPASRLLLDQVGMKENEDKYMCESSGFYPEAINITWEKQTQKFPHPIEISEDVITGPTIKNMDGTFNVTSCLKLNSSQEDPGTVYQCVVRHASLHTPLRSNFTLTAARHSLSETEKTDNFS

[2] = target: T2, B7H7 (ELISA coat) (human, UniProt Q9UM44 23-344, limits assumed); test: ELISA, plate coated with B7H7
T2 construct: Species read from the list 'human VISTA, PD-1, PD-L1, ...'; also called HHLA2
T2 sequence (looked up): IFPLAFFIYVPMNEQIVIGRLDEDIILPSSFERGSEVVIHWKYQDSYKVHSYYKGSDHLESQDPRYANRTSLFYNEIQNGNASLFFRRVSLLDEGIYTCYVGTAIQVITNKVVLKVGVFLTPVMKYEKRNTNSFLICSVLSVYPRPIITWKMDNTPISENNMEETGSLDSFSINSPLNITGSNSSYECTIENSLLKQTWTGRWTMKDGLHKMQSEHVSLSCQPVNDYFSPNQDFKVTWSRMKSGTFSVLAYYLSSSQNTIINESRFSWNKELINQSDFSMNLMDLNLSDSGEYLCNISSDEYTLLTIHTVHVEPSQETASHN

[3] = target: T3, PD-1 (ELISA coat) (human, UniProt Q15116 25-167, limits assumed); test: ELISA, plate coated with PD1
T3 construct: Species read from the list 'human VISTA, PD-1, PD-L1, ...'

[4] = target: T4, CTLA4 (ELISA coat) (human, UniProt P16410 36-162, limits assumed); test: ELISA, plate coated with CTLA4
T4 construct: Species read from the list 'human VISTA, PD-1, PD-L1, ...'

[5] = target: T5, B7H3 (ELISA coat) (human, UniProt Q5ZPR3 29-461, limits assumed); test: ELISA, plate coated with B7H3
T5 construct: Species read from the list 'human VISTA, PD-1, PD-L1, ...'; also called CD276
T5 sequence (looked up): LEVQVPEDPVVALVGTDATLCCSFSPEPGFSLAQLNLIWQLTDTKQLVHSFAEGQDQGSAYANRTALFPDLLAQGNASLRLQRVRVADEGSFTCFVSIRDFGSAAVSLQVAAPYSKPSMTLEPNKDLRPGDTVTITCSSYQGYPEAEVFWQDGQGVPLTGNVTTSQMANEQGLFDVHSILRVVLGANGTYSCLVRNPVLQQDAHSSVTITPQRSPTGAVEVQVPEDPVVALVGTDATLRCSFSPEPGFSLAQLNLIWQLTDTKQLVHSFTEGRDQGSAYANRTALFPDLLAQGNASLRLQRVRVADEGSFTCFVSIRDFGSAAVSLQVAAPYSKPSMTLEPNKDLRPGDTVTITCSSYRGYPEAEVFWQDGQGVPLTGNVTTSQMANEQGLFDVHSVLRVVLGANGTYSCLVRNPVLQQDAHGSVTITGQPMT

[6] = target: T6, human PD-L1 (ELISA coat) (human, UniProt Q9NZQ7 19-239); test: ELISA, plate coated with B7H1 (PDL1)
[7] = target: T7, B7H4 (ELISA coat) (human, UniProt Q7Z7D3 25-258, limits assumed); test: ELISA, plate coated with B7H4
T7 construct: Species read from the list 'human VISTA, PD-1, PD-L1, ...'; also called VTCN1
T7 sequence (looked up): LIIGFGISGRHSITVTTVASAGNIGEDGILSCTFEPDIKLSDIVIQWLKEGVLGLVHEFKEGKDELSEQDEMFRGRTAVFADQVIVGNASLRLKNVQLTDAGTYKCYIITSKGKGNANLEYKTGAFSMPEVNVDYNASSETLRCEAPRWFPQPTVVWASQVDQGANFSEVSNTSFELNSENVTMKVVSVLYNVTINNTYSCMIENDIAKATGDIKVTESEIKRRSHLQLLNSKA

[8] = target: T3, PD-1 (ELISA coat); test: ELISA, plate coated with PD1; remark: listed apart in the source
[9] = target: T7, B7H4 (ELISA coat); test: ELISA, plate coated with B7H4; remark: listed apart in the source
[10] = target: T6, human PD-L1 (ELISA coat); test: ELISA, plate coated with B7H1 (PDL1); remark: listed apart in the source
[11] = target: T4, CTLA4 (ELISA coat); test: ELISA, plate coated with CTLA4; remark: listed apart in the source
[12] = target: T1, B7H6 (ELISA coat); test: ELISA, plate coated with B7H6; remark: listed apart in the source
[13] = target: T5, B7H3 (ELISA coat); test: ELISA, plate coated with B7H3; remark: listed apart in the source
[14] = target: T2, B7H7 (ELISA coat); test: ELISA, plate coated with B7H7; remark: listed apart in the source
[15] = target: T6, human PD-L1 (ELISA coat); test: ELISA, plate coated with B7H1 (PDL1); remark: listed apart in the source
[16] = target: T3, PD-1 (ELISA coat); test: ELISA, plate coated with PD1; remark: listed apart in the source
[17] = target: T5, B7H3 (ELISA coat); test: ELISA, plate coated with B7H3; remark: listed apart in the source
[18] = target: T7, B7H4 (ELISA coat); test: ELISA, plate coated with B7H4; remark: listed apart in the source
[19] = target: T1, B7H6 (ELISA coat); test: ELISA, plate coated with B7H6; remark: listed apart in the source
[20] = target: T2, B7H7 (ELISA coat); test: ELISA, plate coated with B7H7; remark: listed apart in the source
[21] = target: T4, CTLA4 (ELISA coat); test: ELISA, plate coated with CTLA4; remark: listed apart in the source
[22] = target: T3, PD-1 (ELISA coat); test: ELISA, plate coated with PD1; remark: listed apart in the source
[23] = target: T4, CTLA4 (ELISA coat); test: ELISA, CTLA4 coated
[24] = target: T6, human PD-L1 (ELISA coat); test: ELISA, human PD-L1 coated
[25] = target: T5, B7H3 (ELISA coat); test: ELISA, B7H3 coated
[26] = target: T7, B7H4 (ELISA coat); test: ELISA, plate coated with B7H4; remark: listed apart in the source
[27] = target: human HER3 (human, UniProt P21860 20-643); test: ELISA, human HER3 coated
[28] = target: T1, B7H6 (ELISA coat); test: ELISA, plate coated with B7H6; remark: listed apart in the source
[29] = target: T2, B7H7 (ELISA coat); test: ELISA, plate coated with B7H7; remark: listed apart in the source

T3 sequence (Q15116 25-167 limits assumed): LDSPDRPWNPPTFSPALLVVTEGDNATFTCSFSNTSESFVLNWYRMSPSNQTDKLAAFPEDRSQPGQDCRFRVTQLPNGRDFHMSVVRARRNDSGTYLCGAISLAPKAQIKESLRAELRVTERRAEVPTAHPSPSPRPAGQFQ
T4 sequence (P16410 36-162 limits assumed): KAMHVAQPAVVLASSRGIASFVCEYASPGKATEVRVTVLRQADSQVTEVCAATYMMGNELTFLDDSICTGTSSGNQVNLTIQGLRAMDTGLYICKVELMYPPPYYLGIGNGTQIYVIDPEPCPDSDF
T6 sequence (Q9NZQ7 19-239 limits assumed): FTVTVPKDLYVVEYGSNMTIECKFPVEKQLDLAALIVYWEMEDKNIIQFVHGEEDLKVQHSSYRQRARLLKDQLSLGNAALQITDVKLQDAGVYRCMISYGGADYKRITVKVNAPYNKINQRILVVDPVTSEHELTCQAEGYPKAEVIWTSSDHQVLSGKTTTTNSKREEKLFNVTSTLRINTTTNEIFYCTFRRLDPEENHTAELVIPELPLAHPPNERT

B1: anti-VISTA clone V4-C24 IgG1 (antibody, V domains shown)
VH: QVQLQESGPGLVKPSDTLSLTCTVSGYSITSDYTWNWIRQTPGKGLEWIGHITYSGSVSYNPSLRSRVTISRDTSKNQFSLKLSSVTAADTATYSCARALYYPWYFDVWGTGTTVTVSS
VL: EIVLTQSPATLSLSPGERATLSCRASSSVGYIHWYQQKPGQAPRPLIYTTSYRATGIPARFSGSGSGTDNTLTISSLEPEDSAVYYCQQWSSYPPITFGGGTKLEVKR
notes: Human IgG1/kappa
binding result [1]: no binding (tested: log -7.5 (about 3e-8 M))
binding result [2]: no binding (tested: log -7.5 (about 3e-8 M))
binding result [3]: no binding (tested: log -7.5 (about 3e-8 M))
binding result [4]: no binding (tested: log -7.5 (about 3e-8 M))
binding result [5]: no binding (tested: log -7.5 (about 3e-8 M))
binding result [6]: no binding (tested: log -7.5 (about 3e-8 M))
binding result [7]: no binding (tested: log -7.5 (about 3e-8 M))

B2: anti-VISTA clone V4-C26 IgG1 (antibody, V domains shown)
VH: QVQLQESGPGLVKPSDTLSLTCTVSGYSITSDYTWNWIRQTPGKGLEWIGHITYSGSVSYNPSLRSRVTISRDTSKNQFSLKLSSVTAADTATYSCARALYYPWYFDVWGTGTTVTVSS
VL: EIVLTQSPATLSLSPGERATLSCRASSSVGYIHWYQQKPGQAPRPIIYTTSNRATGIPARFSGSGSGTDNTLTISSLEPEDSAVYYCQQWSSYPPITFGGGTKLEVKR
notes: Human IgG1/kappa
binding result [8]: no binding (tested: log -7.5 (about 3e-8 M))
binding result [9]: no binding (tested: log -7.5 (about 3e-8 M))
binding result [10]: no binding (tested: log -7.5 (about 3e-8 M))
binding result [11]: no binding (tested: log -7.5 (about 3e-8 M))
binding result [12]: no binding (tested: log -7.5 (about 3e-8 M))
binding result [13]: no binding (tested: log -7.5 (about 3e-8 M))
binding result [14]: no binding (tested: log -7.5 (about 3e-8 M))

B3: anti-VISTA clone V4-C27 IgG1 (antibody, V domains shown)
VH: QVQLQESGPGLVKPSDTLSLTCTVSGYSITSDYTWNWIRQTPGKGLEWIGHITYSGSVSYNPSLRSRVTISRDTSKNQFSLKLSSVTAADTATYSCARALYYPWYFDVWGTGTTVTVSS
VL: EIVLTQSPATLSLSPGERATLSCRASSSVGYIHWYQQKPGQAPRPLIYATYNRATGIPARFSGSGSGTDNTLTISSLEPEDSAVYYCQQWSSYPPITFGGGTKLEVKR
notes: Human IgG1/kappa
binding result [15]: no binding (tested: log -7.5 (about 3e-8 M))
binding result [16]: no binding (tested: log -7.5 (about 3e-8 M))
binding result [17]: no binding (tested: log -7.5 (about 3e-8 M))
binding result [18]: no binding (tested: log -7.5 (about 3e-8 M))
binding result [19]: no binding (tested: log -7.5 (about 3e-8 M))
binding result [20]: no binding (tested: log -7.5 (about 3e-8 M))
binding result [21]: no binding (tested: log -7.5 (about 3e-8 M))

binding result [23]: no binding (tested: log M about -7.5)
binding result [24]: no binding (tested: log M about -6.7)
binding result [25]: no binding (tested: log M about -7.5)
binding result [27]: no binding (tested: log M about -6.2)
B4: anti-VISTA clone 4M2-C12 IgG1 (antibody)
heavy: not shown
light: DIVITQTPAILSTSPGEKVTMTCRASSSVGYIHWYQQKPGSSPKPWIYATSNLASGVPARFSGSGSGTSNSLTITRVEAEDAATYYCQQWSSYPPITFGGGTKLEVKRTVAAPSVFIFPPSDEQLKSGTASVVCLLNNFYPREAKVQWKVDNALQSGNSQESVTEQDSKDSTYSLSSTLTLSKADYEKHKVYACEVTHQGLSSPVTKSFNRGEC
notes: also called V4; 4M2-C12-hIgG1
binding result [22]: no binding (tested: log -7.5 (about 3e-8 M))
binding result [26]: no binding (tested: log -7.5 (about 3e-8 M))
binding result [28]: no binding (tested: log -7.5 (about 3e-8 M))
binding result [29]: no binding (tested: log -7.5 (about 3e-8 M))
